The source of these data is US20200055920A1 (published 2020).

Holding throughout (assay): Biacore SPR; receptor-Fc captured by anti-Fc antibody, ligand injected
The target in experiment [1] is T1, GDF7 (UniProt Q7Z4P5 322-450, limits assumed).
T1 construct: also called BMP12
T1 sequence (looked up): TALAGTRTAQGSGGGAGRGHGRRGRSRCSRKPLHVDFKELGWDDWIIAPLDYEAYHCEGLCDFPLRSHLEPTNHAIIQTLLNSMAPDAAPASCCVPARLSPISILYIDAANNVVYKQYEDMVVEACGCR

The target of experiment [2] is T2, BMP4 (UniProt P12644 293-408).
T2 sequence (looked up): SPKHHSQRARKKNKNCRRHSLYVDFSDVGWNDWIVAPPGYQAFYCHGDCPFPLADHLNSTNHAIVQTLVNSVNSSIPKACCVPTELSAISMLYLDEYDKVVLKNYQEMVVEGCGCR

Experiment [3] addresses T3, BMP2 (UniProt P12643 283-396).
Experiment [4] has as its target T4, BMP5 (UniProt P22003 317-454, limits assumed).
T4 sequence (looked up): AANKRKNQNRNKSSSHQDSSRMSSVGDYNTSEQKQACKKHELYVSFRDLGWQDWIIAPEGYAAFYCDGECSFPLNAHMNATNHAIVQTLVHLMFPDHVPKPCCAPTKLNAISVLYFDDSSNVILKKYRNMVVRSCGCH

The target in experiment [5] is T5, BMP7 (UniProt P18075 293-431).
T5 construct: also called osteogenic protein-1; OP-1
T5 sequence (looked up): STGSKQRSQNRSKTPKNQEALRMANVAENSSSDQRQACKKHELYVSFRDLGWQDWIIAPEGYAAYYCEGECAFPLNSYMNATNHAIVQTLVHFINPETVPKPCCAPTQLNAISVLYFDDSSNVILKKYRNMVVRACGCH

For experiment [6], the target named is T6, BMP6 (UniProt P22004 382-513, limits assumed).
T6 sequence (looked up): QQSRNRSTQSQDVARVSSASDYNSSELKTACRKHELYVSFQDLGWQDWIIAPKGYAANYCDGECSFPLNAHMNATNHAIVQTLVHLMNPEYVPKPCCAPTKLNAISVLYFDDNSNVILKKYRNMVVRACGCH

A further experiment has as its target T7, GDF6 (UniProt Q6KF10 336-455, limits assumed).
T7 construct: also called BMP13
T7 sequence (looked up): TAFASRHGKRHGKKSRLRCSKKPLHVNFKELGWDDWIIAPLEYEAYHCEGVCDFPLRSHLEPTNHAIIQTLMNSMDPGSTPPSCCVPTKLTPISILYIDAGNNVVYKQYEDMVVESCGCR
The method, then: (§1) Ligands were injected and allowed to flow over the captured receptor protein.

In the next experiment the target is T8, GDF5 (UniProt P43026 382-501, limits assumed).
T8 construct: also called BMP14
T8 sequence (looked up): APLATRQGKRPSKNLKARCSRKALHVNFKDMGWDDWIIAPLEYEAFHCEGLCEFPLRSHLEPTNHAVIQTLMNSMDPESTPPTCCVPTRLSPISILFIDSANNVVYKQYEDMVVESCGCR
The method, then: as §1

For the next experiment, the target named is T9, TGFβ3 (UniProt P10600 301-412).
T9 construct: also called TGF-beta3
T9 sequence (looked up): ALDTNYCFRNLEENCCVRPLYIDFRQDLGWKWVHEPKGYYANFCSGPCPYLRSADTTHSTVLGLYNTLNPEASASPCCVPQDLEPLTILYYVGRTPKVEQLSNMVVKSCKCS
The method, then: as §1

The target in another experiment is T10, TGFβ2 (UniProt P61812 303-414).
T10 construct: also called TGF-beta2
T10 sequence (looked up): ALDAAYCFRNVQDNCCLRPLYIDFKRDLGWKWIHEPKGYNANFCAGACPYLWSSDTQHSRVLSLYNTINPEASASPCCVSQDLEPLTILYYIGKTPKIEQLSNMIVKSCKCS
The method, then:
as §1

In another experiment the target is T11, TGFβ1 (UniProt P01137 279-390).
T11 construct: also called TGF-beta1
T11 sequence (P01137 279-390 limits assumed): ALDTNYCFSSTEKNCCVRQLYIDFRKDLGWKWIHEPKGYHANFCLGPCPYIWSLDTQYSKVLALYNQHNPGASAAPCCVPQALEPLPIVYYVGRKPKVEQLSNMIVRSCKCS
The method, then:
as §1

Experiment [7] has as its target T1, GDF7. The method, then: (§2) A Biacore™-based binding assay was used to compare ligand binding selectivity of the single-arm BMPRII-Fc heterodimeric complex described above with that of an BMPRII-Fc homodimeric complex. The single-arm BMPRII-Fc and homodimeric BMPRII-Fc were independently captured onto the system using an anti-Fc antibody. Ligands were injected and allowed to flow over the captured receptor protein.
The source holds these as a separate data set.

Experiment [8] deals with T2, BMP4. The method, then:
as §2
This is another data set of the same source.

Experiment [9] deals with T3, BMP2. The method, then:
as §2
This is another data set of the same source.

The target in experiment [10] is T4, BMP5. The method, then:
as §2
This is another data set of the same source.

In experiment [11] the target is T5, BMP7. The method, then:
as §2
This is another data set of the same source.

Experiment [12] has as its target T6, BMP6. The method, then:
as §2
The source holds these as a separate data set.

In the next experiment the target is T12, BMP10 (UniProt O95393 317-424).
T12 sequence (looked up): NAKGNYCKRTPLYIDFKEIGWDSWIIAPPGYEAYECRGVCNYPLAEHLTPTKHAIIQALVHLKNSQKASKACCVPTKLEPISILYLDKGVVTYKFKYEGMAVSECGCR
The method, then: as §2

The target of the next experiment is T13, BMP15 (UniProt O95972 268-392).
T13 construct: also called GDF9b
T13 sequence (looked up): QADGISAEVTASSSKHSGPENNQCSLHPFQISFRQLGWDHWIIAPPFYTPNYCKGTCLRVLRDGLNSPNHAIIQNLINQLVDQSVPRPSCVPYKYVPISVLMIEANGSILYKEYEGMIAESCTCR
The method, then: as §2

Where two headings read alike, the source gives them in different places.

T3 sequence (P12643 283-396 limits assumed): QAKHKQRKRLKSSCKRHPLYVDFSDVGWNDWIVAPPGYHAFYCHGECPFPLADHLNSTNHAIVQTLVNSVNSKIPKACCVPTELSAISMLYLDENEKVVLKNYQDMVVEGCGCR

By Kd is commonly meant the equilibrium constant for the complex coming apart. Low readings indicate a tighter complex, high ones a looser complex. As a reminder, the koff is the first-order rate constant of dissociation. A word on the kon: it is a measure of how fast the partners come together. High values mean fast association, low ones slow association. On to ALK3-Fc homodimer (Fc fusion), for which the dissociation constant Kd is 12 nM with GDF7 [1]; 0.178 nM in the experiment with BMP4 [2]; 0.13 nM with BMP2 [3]; 70 nM with BMP5 [4]; 15 nM with BMP7 [5]; 35 nM with BMP6 [6]. In addition, the figures for the Kd with GDF6 and with GDF5 were 40 nM and 22 nM, respectively. The dissociation rate constant (koff) with GDF7 [1] came out at 0.0027 s⁻¹; with BMP4 [2], 5.3e-05 s⁻¹; with BMP2 [3], 8.9e-05 s⁻¹; with BMP5 [4] it was 0.002 s⁻¹; with BMP7 [5] it was 0.018 s⁻¹; with BMP6 [6], 0.0049 s⁻¹. The values for the off-rate (koff) with GDF6 and with GDF5 were 0.0013 s⁻¹ and 0.011 s⁻¹, respectively. Also, the kon came out at 220000 M⁻¹ s⁻¹ with GDF7 [1]; 300000 M⁻¹ s⁻¹ in the experiment with BMP4 [2]; 680000 M⁻¹ s⁻¹ in the experiment with BMP2 [3]; 29000 M⁻¹ s⁻¹ with BMP5 [4]; 1.2e+06 M⁻¹ s⁻¹ with BMP7 [5]; 140000 M⁻¹ s⁻¹ with BMP6 [6]. For the same molecule, the kon with GDF6 was 34000 M⁻¹ s⁻¹; with GDF5, 480000 M⁻¹ s⁻¹.
In the experiment with TGFβ3, TGFβRII-Fc homodimer (Fc fusion) displayed a Kd of 0.099 nM, a koff of 0.0059 s⁻¹ and a kon of 5.9e+07 M⁻¹ s⁻¹. The Kd with TGFβ2 is above 44 nM. In the experiment with TGFβ1, the Kd was 0.025 nM, the dissociation rate constant (koff) turned out to be 0.0011 s⁻¹ and the kon is 4.2e+07 M⁻¹ s⁻¹.

B1: single-arm BMPRII-Fc heterodimeric complex (Fc fusion)
chain 1: SQNQERLCAFKDPYQQDLGIGESRISHENGTILCSKGSTCYGLWEKSKGDINLVKQGCWSHIGDPQECHYEECVVTTTPPSIQNGTYRFCCCSTDLCNVNFTENFPPPDTTPLSPPHSFNRDETGGGTHTCPPCPAPELLGGPSVFLFPPKPKDTLMISRTPEVTCVVVDVSHEDPEVKFNWYVDGVEVHNAKTKPREEQYNSTYRVVSVLTVLHQDWLNGKEYKCKVSNKALPAPIEKTISKAKGQPREPQVYTLPPSRKEMTKNQVSLTCLVKGFYPSDIAVEWESNGQPENNYKTTPPVLKSDGSFFLYSKLTVDKSRWQQGNVFSCSVMHEALHNHYTQKSLSLSPGK
chain 2: SNTKVDKRVTGGGTHTCPPCPAPELLGGPSVFLFPPKPKDTLMISRTPEVTCVVVDVSHEDPEVKFNWYVDGVEVHNAKTKPREEQYNSTYRVVSVLTVLHQDWLNGKEYKCKVSNKALPAPIEKTISKAKGQPREPQVYTLPPSREEMTKNQVSLTCLVKGFYPSDIAVEWESNGQPENNYDTTPPVLDSDGSFFLYSDLTVDKSRWQQGNVFSCSVMHEALHNHYTQKSLSLSPGK
notes: also called BMPRII-Fc:Fc heterodimer
On to B1, for which the equilibrium dissociation constant (Kd) with GDF7 [7] was above 190 nM; with BMP5 [10], 36 nM; in the experiment with BMP10, 0.43 nM; in the experiment with BMP15 it was 0.94 nM. In addition, the binding result with BMP4 [8], with BMP2 [9], with BMP7 [11] and with BMP6 [12] was “no binding” in each case. Further, the results for the off-rate constant (koff) with BMP5 [10], in the experiment with BMP10 and with BMP15 were 0.015 s⁻¹, 0.0091 s⁻¹ and 0.067 s⁻¹, respectively. Further, the on-rate (kon) in the experiment with BMP5 [10] is 410000 M⁻¹ s⁻¹; with BMP10, 2.1e+07 M⁻¹ s⁻¹; in the experiment with BMP15 it was 7.1e+07 M⁻¹ s⁻¹.

B2: single-arm TGFβRII-Fc heterodimeric complex (Fc fusion)
chain 1: TIPPHVQKSVNNDMIVTDNNGAVKFPQLCKFCDVRFSTCDNQKSCMSNCSITSICEKPQEVCVAVWRKNDENITLETVCHDPKLPYHDFILEDAASPKCIMKEKKKPGETFFMCSCSSDECNDNIIFSEEYNTSNPDTGGGTHTCPPCPAPELLGGPSVFLFPPKPKDTLMISRTPEVTCVVVDVSHEDPEVKFNWYVDGVEVHNAKTKPREEQYNSTYRVVSVLTVLHQDWLNGKEYKCKVSNKALPAPIEKTISKAKGQPREPQVYTLPPSRKEMTKNQVSLTCLVKGFYPSDIAVEWESNGQPENNYKTTPPVLKSDGSFFLYSKLTVDKSRWQQGNVFSCSVMHEALHNHYTQKSLSLSPGK
chain 2: B1 chain 2
notes: also called TGFβRII-Fc:Fc heterodimer
In the case of B2, in the experiment with TGFβ3, the Kd came out at 0.073 nM, the dissociation rate constant (koff) was 0.0099 s⁻¹ and the on-rate (kon) was determined as 1.4e+08 M⁻¹ s⁻¹. In the experiment with TGFβ2, this molecule registered a Kd above 61 nM. In the experiment with TGFβ1, this molecule yielded a dissociation constant Kd of 0.031 nM, a koff of 0.0047 s⁻¹ and a kon of 1.5e+08 M⁻¹ s⁻¹.
